Measured values: paper PMC9367177
Like-named read-outs stand apart in the source and are kept apart here.

Legend:
[1] = molecular target: SARS-CoV-2 RBD (Wuhan-1) (SARS-CoV-2, Wuhan-1) (UniProt P0DTC2); experiment: SPR
[2] = molecular target: SARS-CoV-2 RBD (Wuhan-1) (SARS-CoV-2, Wuhan-1) (UniProt P0DTC2); experiment: SPR; remark: listed apart in the source

CC12.1 (antibody)
Kd [1]: 5.92 nM | koff [1]: 0.00412 s⁻¹ | kon [1]: 695000 M⁻¹ s⁻¹ | kon [2]: 696000 M⁻¹ s⁻¹
